Measured values taken from patent publication US20210122826A1 (MIT, published 2021).
Substitutions are numbered along the chain they refer to.

B1: anti-CD161 KW17 (antibody, V domains shown)
VH: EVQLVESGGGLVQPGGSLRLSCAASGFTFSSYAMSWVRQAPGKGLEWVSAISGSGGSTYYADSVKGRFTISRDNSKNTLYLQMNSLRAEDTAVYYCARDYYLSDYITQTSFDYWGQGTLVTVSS
VL: QSVLTQPPSVSGAPGQRVTISCTGSSSNIGAGYDVHWYQQLPGTAPKLLIYGNSNRPSGVPDRFSGSKSGTSASLAITGLQAEDEADYYCQSYDSSHTVFGGGTQLTVL
notes: Human, lambda light chain; scFv-Fc or full IgG not clear; also called KW17-Fc
B2: KW17.3.4 (antibody, V domains shown)
VH: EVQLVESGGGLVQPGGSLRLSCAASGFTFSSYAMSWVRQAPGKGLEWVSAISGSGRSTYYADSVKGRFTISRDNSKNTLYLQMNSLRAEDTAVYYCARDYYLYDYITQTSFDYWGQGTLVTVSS
VL: B1 VL with K68Q, D94N, S96G
B3: KM12.2.3 (antibody, human IgG1, V domains shown)
VH: EVQLVESGGGLVQPGGSLRLSCAASGFTFSSYAMSWIRQAPGKGLEWVSAISGSGGSIYYADSVKGRFTISRDNSKNTLYLQMNSLRAEDTAVYYCARGYSDSYFYGPYYTFDYWGQGTLVTVSS
VL: DIQMTQSPSSLSASVGDRVTITCRASQGISSYLNWYQQKPGKAPKLLIYAASSLQSGVSSRFSGSGSGTDFTLTISSLQPEDFATYYCQQSYNTPLTFGQGTKVEIK
B4: KW9.3.3 (antibody, V domains shown)
VH: EVQLVESGGGLVQPGGSLRLSCAASGFTFSSYAMSWVRQAPGKGLEWVSAISGSGGRTYYADSVKGRFTISRDNSKNTLYLQMNSLRAEDTAMYYCARGPGYMYLYGDSFFEYWGQGTLVTVSS
VL: B3 VL with T5A, S59P, S67Y, N93S
B5: KM12.4.7 (antibody, V domains shown)
VH: B3 VH with S21P, N84D
VL: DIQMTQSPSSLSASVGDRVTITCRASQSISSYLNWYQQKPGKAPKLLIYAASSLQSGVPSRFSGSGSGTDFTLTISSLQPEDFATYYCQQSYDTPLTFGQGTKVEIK

These binders were tested against T1, Human OLR1 (human, UniProt P78380 1-273) (assay: flow, Jurkat).
T1 construct: also called hOLR1

Binding result, no binding (tested: 100 nM):
B1
B2
B3
B4
B5

What follows are binders tested against T2, Human Clec12B (human, UniProt Q2HXU8 1-276) (assay: flow, Jurkat).
T2 construct: also called hClec12B
T2 sequence: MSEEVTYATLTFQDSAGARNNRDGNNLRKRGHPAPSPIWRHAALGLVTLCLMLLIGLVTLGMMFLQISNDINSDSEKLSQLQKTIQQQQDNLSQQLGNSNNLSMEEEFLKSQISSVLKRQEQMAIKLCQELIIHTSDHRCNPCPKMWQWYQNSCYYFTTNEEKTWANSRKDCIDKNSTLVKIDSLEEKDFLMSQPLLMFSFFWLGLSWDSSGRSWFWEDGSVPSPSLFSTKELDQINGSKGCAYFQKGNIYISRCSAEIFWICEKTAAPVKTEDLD

Binding result, no binding (tested: 100 nM):
B1
B2
B3
B4
B5

What follows are binders tested against T3, Human Clec9A (human, UniProt Q6UXN8 1-241) (assay: flow, Jurkat).
T3 construct: also called hClec9A
T3 sequence (Q6UXN8 whole entry): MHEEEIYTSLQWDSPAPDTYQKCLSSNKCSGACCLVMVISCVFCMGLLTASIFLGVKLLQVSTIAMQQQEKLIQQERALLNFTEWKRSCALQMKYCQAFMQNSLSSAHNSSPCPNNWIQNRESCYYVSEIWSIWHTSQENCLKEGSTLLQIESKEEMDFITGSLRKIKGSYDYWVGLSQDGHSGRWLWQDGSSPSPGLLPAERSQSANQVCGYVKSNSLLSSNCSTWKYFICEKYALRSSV

Binding result, no binding (tested: 100 nM):
B1
B2
B3
B4
B5

The binders below were run against T4, Human CD94 (human, UniProt Q13241 1-179) (assay: flow, Jurkat).
T4 construct: also called hCD94
T4 sequence: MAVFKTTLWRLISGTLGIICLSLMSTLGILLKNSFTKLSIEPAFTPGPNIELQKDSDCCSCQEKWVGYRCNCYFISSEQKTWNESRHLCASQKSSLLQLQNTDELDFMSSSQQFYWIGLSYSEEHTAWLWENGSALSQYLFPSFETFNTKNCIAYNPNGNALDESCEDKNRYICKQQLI

Binding result, no binding (tested: 100 nM):
B1
B2
B3
B4
B5

Each binder was assayed against T5, Human KLRG1 (human, UniProt Q96E93 1-195) (assay: flow, Jurkat).
T5 construct: also called hKLRG1
T5 sequence: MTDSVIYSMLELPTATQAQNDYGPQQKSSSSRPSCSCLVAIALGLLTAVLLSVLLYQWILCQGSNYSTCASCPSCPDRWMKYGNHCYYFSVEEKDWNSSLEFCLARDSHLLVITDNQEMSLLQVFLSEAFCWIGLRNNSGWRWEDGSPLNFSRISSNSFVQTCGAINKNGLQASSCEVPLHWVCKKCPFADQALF

Binding result, no binding (tested: 100 nM):
B1
B2
B3
B4
B5

These binders were tested against T6, Human CD209 (human, UniProt Q9NNX6 1-404) (assay: flow, Jurkat).
T6 construct: also called hCD209
T6 sequence: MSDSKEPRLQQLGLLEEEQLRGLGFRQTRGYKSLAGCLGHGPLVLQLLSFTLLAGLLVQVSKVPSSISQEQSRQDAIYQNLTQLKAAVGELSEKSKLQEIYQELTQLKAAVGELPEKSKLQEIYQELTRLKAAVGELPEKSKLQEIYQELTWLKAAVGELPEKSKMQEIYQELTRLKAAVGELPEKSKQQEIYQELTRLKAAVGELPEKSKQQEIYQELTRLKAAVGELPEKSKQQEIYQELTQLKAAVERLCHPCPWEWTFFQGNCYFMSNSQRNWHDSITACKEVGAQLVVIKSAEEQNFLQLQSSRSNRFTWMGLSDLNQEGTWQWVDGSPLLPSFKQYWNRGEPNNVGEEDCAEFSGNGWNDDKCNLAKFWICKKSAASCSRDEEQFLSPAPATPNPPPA

Binding result, no binding (tested: 100 nM):
B1
B2
B3
B4
B5

What follows are binders tested against T7, Human KLRF2 (human, UniProt D3W0D1 1-207) (assay: flow, Jurkat).
T7 construct: also called hKLRF2
T7 sequence: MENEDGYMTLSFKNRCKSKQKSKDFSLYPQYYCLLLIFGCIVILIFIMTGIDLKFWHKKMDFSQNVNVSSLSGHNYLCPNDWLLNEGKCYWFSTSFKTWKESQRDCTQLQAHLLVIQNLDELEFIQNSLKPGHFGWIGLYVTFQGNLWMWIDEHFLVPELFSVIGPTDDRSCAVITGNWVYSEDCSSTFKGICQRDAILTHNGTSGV

Binding result, no binding (tested: 100 nM):
B1
B2
B3
B4
B5

These binders were tested against T8, Human Clec7A (human, UniProt Q9BXN2 1-247) (assay: flow, Jurkat).
T8 construct: also called hClec7A
T8 sequence: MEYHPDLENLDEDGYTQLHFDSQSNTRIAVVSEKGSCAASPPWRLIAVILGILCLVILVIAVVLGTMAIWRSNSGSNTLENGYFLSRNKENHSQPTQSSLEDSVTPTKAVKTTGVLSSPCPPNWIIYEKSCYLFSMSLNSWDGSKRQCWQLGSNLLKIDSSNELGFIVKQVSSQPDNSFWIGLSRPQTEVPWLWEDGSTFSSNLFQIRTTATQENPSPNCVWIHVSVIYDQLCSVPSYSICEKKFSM

Binding result, no binding (tested: 100 nM):
B1
B2
B3
B4
B5

These binders were tested against T9, Human Clec5A (human, UniProt Q9NY25 1-188) (assay: flow, Jurkat).
T9 construct: also called hClec5A
T9 sequence: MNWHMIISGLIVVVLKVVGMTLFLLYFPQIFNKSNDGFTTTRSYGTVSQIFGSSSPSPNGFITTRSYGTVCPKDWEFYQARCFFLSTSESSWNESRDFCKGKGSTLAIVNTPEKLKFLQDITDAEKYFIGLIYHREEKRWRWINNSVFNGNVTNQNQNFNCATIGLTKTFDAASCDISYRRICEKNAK

Binding result, no binding (tested: 100 nM):
B1
B2
B3
B4
B5

The binders below were run against T10, Human Clec4E (human, UniProt Q9ULY5 1-219) (assay: flow, Jurkat).
T10 construct: also called hClec4E
T10 sequence: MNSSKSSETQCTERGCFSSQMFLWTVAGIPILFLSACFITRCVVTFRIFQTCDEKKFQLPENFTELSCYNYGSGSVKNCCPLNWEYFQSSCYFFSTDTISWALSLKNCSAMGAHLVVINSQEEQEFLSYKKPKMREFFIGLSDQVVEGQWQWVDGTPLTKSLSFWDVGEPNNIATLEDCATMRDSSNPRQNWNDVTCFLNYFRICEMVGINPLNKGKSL

Binding result, no binding (tested: 100 nM):
B1
B2
B3
B4
B5

What follows are binders tested against T11, Human Clec10A (human, UniProt Q8IUN9 1-316) (assay: flow, Jurkat).
T11 construct: also called hClec10A
T11 sequence: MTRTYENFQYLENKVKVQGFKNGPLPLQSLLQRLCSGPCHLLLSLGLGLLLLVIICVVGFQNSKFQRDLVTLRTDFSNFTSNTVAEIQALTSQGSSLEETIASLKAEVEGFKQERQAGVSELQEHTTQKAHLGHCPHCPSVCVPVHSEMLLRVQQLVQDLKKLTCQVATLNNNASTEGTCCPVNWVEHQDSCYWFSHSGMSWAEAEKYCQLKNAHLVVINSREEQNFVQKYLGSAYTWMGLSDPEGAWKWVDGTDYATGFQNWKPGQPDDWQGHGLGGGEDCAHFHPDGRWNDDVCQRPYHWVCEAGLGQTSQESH

Binding result, no binding (tested: 100 nM):
B1
B2
B3
B4
B5

Each binder was assayed against T12, Human KLRF1 (human, UniProt Q9NZS2 1-231) (assay: flow, Jurkat).
T12 construct: also called hKLRF1
T12 sequence: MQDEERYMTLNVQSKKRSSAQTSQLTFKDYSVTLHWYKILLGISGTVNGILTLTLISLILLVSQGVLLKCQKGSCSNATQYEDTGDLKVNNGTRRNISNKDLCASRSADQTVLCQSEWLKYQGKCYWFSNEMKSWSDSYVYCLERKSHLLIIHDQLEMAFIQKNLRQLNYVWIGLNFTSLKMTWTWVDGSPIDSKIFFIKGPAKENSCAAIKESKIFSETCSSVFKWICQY

Binding result, no binding (tested: 100 nM):
B1
B2
B3
B4
B5
